The values that follow come from publication PMC9418005 (Nature Microbiology, 2022).

The assay has as its target original 2019-nCoV RBD protein (SARS-CoV-2, UniProt P0DTC2). In words: Luminex bead-based competitive binding assay. Conditions: both partners purified.

B1: P2G3 LS human IgG1 monoclonal antibody (antibody, V domains shown)
VH: EVQLVESGGGLVQPGRSLRLSCAASGFRFDDYALHWVRQAPEKGLEWVSGISWNSNNIGYAESVKGRFTISRDTAKKSLYLQMNDLRAEDTALYYCVKDRHYDSSGYFVNGFDIWGQGTLVTVSA
VL: DIQLTQSPSFLSASVGDRVTVTCRASQGISSYVAWYQQKAGKAPTLLIYTASTLQSGVPSRFSGSGSGTEFTLTISSLQPEDFATYYCQQLHSYPVTFGQGTRLDIE
B1: the binding result is “binds”.

B2: P5C3 LS monoclonal antibody (antibody, V domains shown)
VH: QMQLVQSGPEVKKPGTSVKVSCKASGFTFTSSAVQWVRQARGQRLEWIGWIVVGSGNTDYAQQFQERVTITRDMSTSTAYMELSSLGSEDTAVYYCAAPNCSGGSCYDGFDLWGQGTMVTVSS
VL: EIVLTQSPGTLSLSPGERATLSCRGSQSVRSSYLGWYQQKPGQAPRLLIYGASSRATGIPDRFSGSGSGTDFTLTISRLEPEDFAVYYCQQYGSSPWTFGQGTKVEIK
With B2, the binding result was “binds”.
